Experimental data: the supplement of paper PMC10567573
± gives the standard deviation.

Experiment: protein stability index of a GFP-peptide fusion (GPS, HEK-293T) (PSI 1-6); higher = more stable
Conditions: c terminus: a fixed tail appended
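Further: 24-mer peptide tiles fused after GFP, lentivirally expressed, FACS-sorted into six equal bins by GFP/DsRed ratio, decoded by Illumina sequencing, PSI is the read-weighted mean bin number.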

Sequence | protein stability index (treatment: DMSO) | protein stability index (treatment: MLN4924 1 uM, 8 h)
EHGEKIYFFCENDAEFLCVFCREG [TRIM15] | 2.36 ± 0.082 | 2.53 ± 0.42
EHIADALRAIDFGTDEEEEEFIEE [TRIM63] | 5.34 ± 0.2 | 5.36 ± 0.32
EICLWGRHIFMGYLESETETTEAI [ACSBG2] | 2.55 ± 0.072 | 3.05 ± 0.29
EIFQKPFQTLMFLVRDWSFPYEYS [ATL3] | 2.73 ± 0.56 | 3.52 ± 0.089
EILDYIFSGQIRLNEDTIQDVVQA [GAN] | 2.67 ± 0.55 | 2.23 ± 0.34
EIPTGKKDHECSECGKTFIYNSHL [ZNF232] | 3.7 ± 0.21 | 3.49 ± 0.28
EISGPLTSANKITLVSSGSGTMGA [FLOT1] | 3.46 ± 0.046 | 3.5 ± 0.26
EKIQQDADSVITVGRGEVVTVRVP [ACBD3] | 4.55 ± 0.16 | 4.63 ± 0.14
EKRAKRLSSAPSSRAEPIRTTVFQ [ZMAT5] | 3.74 ± 0.54 | 3.86 ± 0.061
EKSGFSQHQNKSPPKVKAEDGMQC [DLC1] | 5.19 ± 0.33 | 5.22 ± 0.13
EKTQDDLMKHQTNISELKRTFLET [EPB41L3] | 4.18 ± 0.68 | 4.2 ± 0.31
ELAEIFRASGEHVTDEEIESLMKD [TNNC2] | 5 ± 0.41 | 5.34 ± 0.33
ELDSSSSLCVLVSTVGKLCRLINE [CEP70] | 3.73 ± 0.53 | 3.6 ± 0.35
ELTNGVINAAFMLLFKDLIKLFAC [SNAP91] | 3.57 ± 0.5 | 3.14 ± 0.57
EMLAAACQMFLGKTEAEIAHIALE [FLOT1] | 3.15 ± 0.81 | 2.78 ± 0.34
EMSKDALPEKACQLDSRYWRITNA [FBXO3] | 3.55 ± 0.24 | 3.5 ± 0.16
ENHPDVFSDSSMDHFQKFLPTVGG [MYOZ1] | 2.99 ± 0.5 | 3.34 ± 0.53
ENIEVKEGGLYFERRPVAQSTDGA [SPSB2] | 4.55 ± 0.27 | 4.66 ± 0.18
ENIKGYYIIIVPLKKSRGKFIKPW [PTPRD] | 2.67 ± 0.86 | 1.86 ± 0.45
ENVVHGHILAAEQLSRDSTLGGKA [NSDHL] | 4.52 ± 0.11 | 4.6 ± 0.3
ENYHKLRRSSSKCIHDHHCGSQLS [NETO1] | 3.1 ± 0.27 | 3.26 ± 0.4
EPLRSEILSGKFTILNVRDPTGAS [PTPN9] | 3.65 ± 0.098 | 3.58 ± 0.16
EPSHSVKVHTVPKPGKGADLSKPP [ATE1] | 4.96 ± 0.22 | 4.96 ± 0.27

Sequence | protein stability index (treatment: DMSO) | protein stability index (treatment: MLN4924 1 uM, 8 h)
EQRADPNAKAHCGATALHFAAEAG [FEM1B] | 4.03 ± 0.18 | 3.98 ± 0.34
EQREWVLKSSILIAMAVYTYLRLI [INTS3] | 2.6 ± 0.59 | 2.59 ± 0.45
ERCLHMFLQEEAIDRNYVPGKSLA [SNX12] | 2.97 ± 0.31 | 3.05 ± 0.26
EREMAEIRDQMQQQLNDYEQLLDV [LMNB1] | 5.15 ± 0.17 | 5.09 ± 0.19
ERFLELAPDFVGDILWEHLEQMIK [ETS2] | 2.36 ± 0.58 | 2.89 ± 0.51
ERVEALGQFVMKTRRTLKGHGNKV [GNB5] | 3.09 ± 0.7 | 3.52 ± 0.14
ERWLQKQGKYSGVGLLDHMVSIYL [RNF180] | 2.3 ± 0.39 | 2.59 ± 0.28
ESKDYLSLYLLLVSCPKSEVRAKF [SPOPL] | 2.92 ± 0.38 | 2.82 ± 0.63
ESKLLGSNSSRMYFTQTLLPGLAG [MLH1] | 3.12 ± 0.24 | 3.12 ± 0.5
ESKTDGDDTETVPSEQSHASGKLR [TCF25] | 5.54 ± 0.26 | 5.56 ± 0.4
ESNAAQYSPEALASIQNHVRKREA [EFHC1] | 4.87 ± 0.24 | 4.7 ± 0.27
ESQKANQCAVLIYTSGTTGIPKGV [ACSBG2] | 2.13 ± 0.26 | 2.52 ± 0.41
ETDSEMNSQESRSDLEDMEEEEGT [SMG5] | 5.74 ± 0.16 | 5.69 ± 0.074
ETFRQQFRQFGYQDSPGPHEALSR [ZNF396] | 3.34 ± 0.22 | 3.68 ± 0.043
ETQNAFLNERKQASAIKKEELVAR [CHGB] | 3.57 ± 0.12 | 3.77 ± 0.24
ETSPLPGMLAPAAGPAFDSDPEIS [PPFIA4] | 5.48 ± 0.29 | 5.38 ± 0.31
ETYHQQGQCQVLVQRSPWLMMRMG [TCAP] | 2.18 ± 0.22 | 2.23 ± 0.35
EVDPVRRAVRDRNLLRDDRVLQNL [CCND2] | 4.1 ± 0.2 | 4.01 ± 0.27
EVLVGKTIEQSLLEVMEEEELANL [RSPH3] | 4.89 ± 0.3 | 4.91 ± 0.23
EVPLISFTGSQPTAERITQLSAPH [ALDH8A1] | 3.86 ± 0.35 | 3.96 ± 0.43
EVTLSEAGSTAGAAETRGAVEGAA [PALM] | 5.43 ± 0.39 | 5.43 ± 0.17
EVVVAESELQKELKKVKTAHSNDG [DPCD] | 5.18 ± 0.25 | 5.25 ± 0.32
EYQPLQIETYGPHVPELEMLGRLG [MNAT1] | 3.18 ± 0.28 | 3.76 ± 0.31

Sequence | protein stability index (treatment: DMSO) | protein stability index (treatment: MLN4924 1 uM, 8 h)
FDHPIPRVFQNRFSTQYRCFSVSM [UFD1] | 2.89 ± 1 | 2.45 ± 0.6
FDKKDRRALHWAAYMGHLDVVALL [ANKRD44] | 2.61 ± 0.82 | 2.24 ± 0.22
FDVVVILTCSLSFLLCARSLLRGF [MCOLN1] | 3.38 ± 0.31 | 2.98 ± 0.54
FFASGFKRAFKIKDFANTIPGHGG [CDS2] | 1.95 ± 0.11 | 2.33 ± 0.2
FFYGETVTDYFFTLVQREEPLRIL [CDS2] | 2.73 ± 0.66 | 2.17 ± 0.46
FGELMRKLWNPRNFKAHVSPHEML [USP39] | 2.51 ± 0.43 | 2.25 ± 0.084
FGELRLGKNLYTNEYVAIKLEPIK [CSNK1G1] | 3.02 ± 0.94 | 2.04 ± 0.47
FGGTGIPFGESNGNGVHVCNVKYK [KLHDC10] | 2.52 ± 0.35 | 3.06 ± 0.51
FIIFGTMEEMQNKAVVFFVFYLWS [HACD3] | 2.8 ± 0.69 | 2.75 ± 0.13
FIPECNDDGTYSQVQCHSYTGYCW [SMOC2] | 2.79 ± 1 | 2.27 ± 0.45
FLGLGAPNCLSMGSRCLKTFEVPE [ZBED1] | 2.3 ± 0.2 | 2.06 ± 0.28
FLLKFLLVGDRDVGKSEILESLQD [RAB40A] | 2.65 ± 0.43 | 2.9 ± 0.56
FLVDMFNDEIEEVRLQSIHTMRKI [INTS4] | 2.33 ± 0.13 | 2.54 ± 0.34
FMLEIVTPTSLSSLSNAVANTMEH [FBXO33] | 2.77 ± 0.75 | 2.7 ± 0.55
FNPPPSRPLQVNTADHRIYSYVVS [FAF2] | 2.62 ± 0.29 | 2.92 ± 0.38
FPDLLLTKRDSFLKRLYRAPIDWI [ALG2] | 2.27 ± 0.29 | 2.64 ± 0.52
FPLLPDHATALVEAFRLKQQLHAR [PPEF2] | 2.74 ± 0.11 | 2.79 ± 0.09
FPPDLVFRADQRSGPRQLLTLYNP [MOSPD3] | 3.13 ± 0.67 | 2.93 ± 0.29
FPYVVLACFLVRGLLLRGAVDGIL [SLC6A17] | 2.8 ± 0.65 | 3.12 ± 1.1
FQNRRMKHKRQMQDPQLHSPFSGS [VENTX] | 3.3 ± 0.38 | 3.48 ± 0.31
FQQDTKGLVDFRDVALALAALDGG [LPCAT4] | 2.48 ± 0.3 | 2.71 ± 0.2
FQQLMVETCSCGYYLHPLPAGAEY [SCNN1D] | 2.6 ± 0.69 | 2.8 ± 0.69
FQTAIDIFEDRIRGIDIIKWMERY [TRAF3IP2] | 1.9 ± 0.34 | 2.43 ± 0.66

Sequence | protein stability index (treatment: DMSO) | protein stability index (treatment: MLN4924 1 uM, 8 h)
FQTLMFLVRDWSFPYEYSYGLQGG [ATL3] | 3.88 ± 1 | 3.15 ± 0.28
FRKFIPKCSKIVIDFDSINSRPSQ [DCTD] | 2.4 ± 0.27 | 2.15 ± 0.33
FRRGSGSACSLLCCCGRDPSEEHS [MCOLN1] | 3.58 ± 0.35 | 3.33 ± 0.24
FRTKFETEQALRLSVEADINGLRR [KRT17] | 3.37 ± 0.14 | 3.38 ± 0.32
FSRVVHLYRNGKDQDGDQAPEYRG [MOG] | 3.77 ± 0.21 | 3.88 ± 0.34
FSTVWLCWDMQGKRFVAMKVVKSA [SRPK2] | 2.46 ± 0.63 | 2.46 ± 0.28
FTQPQQTSFALERNLRTQQEIEDK [C8orf76] | 4.87 ± 0.37 | 4.9 ± 0.24
FTTFFIDCMAALGLAYDRKKVSKA [SCD] | 2.07 ± 0.32 | 2.26 ± 0.53
FTTLTDRELEEYRREVERKQKGSE [ADD1] | 4.53 ± 0.35 | 4.72 ± 0.4
FVCQCFEGYILREDGKTCRRKDVC [MATN2] | 1.99 ± 0.39 | 3.09 ± 0.092
FVLFLFAYLVTVRGNLSILAAVLV [OR3A1] | 3.21 ± 0.52 | 3.33 ± 0.34
FVLNAAQCSMPLHVAPLLAAAGLH [NR2F2] | 3.13 ± 0.25 | 2.49 ± 0.48
FYGETVADYFATFVQREEQLQFLI [CDS1] | 2.71 ± 0.79 | 2.43 ± 0.32
GARSKGQCPEPPIVVHCSAGIGRT [PTPN9] | 3.46 ± 0.32 | 3.77 ± 0.46
GASKAAGVFGFFATIVFATDFYLI [CMTM3] | 3.07 ± 0.23 | 2.88 ± 0.88
GCWATDAAPAAGLCGAGSEPSIAP [RSPH3] | 4.26 ± 0.25 | 4.41 ± 0.07
GDAGSRGPMGMRGPPGPQGPPGSP [EMID1] |  | 4.54 ± 1.7
GDEMTSLSEYVSRMKETQKSIYYI [HSP90AB1] |  | 2.81 ± 0.3
GDKCHSLVGKPKIFIIQACRGNQH [CASP6] | 2.19 ± 0.3 | 2.33 ± 0.66
GEPRKLLTQDWVQENYLEYRQVPG [MAGEA10] | 3.62 ± 0.17 | 4.15 ± 0.3
GERETRTPEELTILGETQEEEDEI [CLCN6] | 5.79 ± 0.11 | 5.64 ± 0.37
